# Test results published in US20250339501A1, “COMPOSITIONS AND METHODS FOR TREATING METABOLIC DISEASE” (The Regents of the University of California, priority 2021, published 2025).
# Entries after “also recorded” stand apart in the source; their conditions may differ.
# B1: rDj1: full-length recombinant Dj1 protein; mouse protein (Novus, NBP2-59523) injected in mice, human protein used in HepG2 cells (protein, UniProt Q99LX0 1-189, looked up)
# chain: MASKRALVILAKGAEEMETVIPVDVMRRAGIKVTVAGLAGKDPVQCSRDVMICPDTSLEDAKTQGPYDVVVLPGGNLGAQNLSESPMVKEILKEQESRKGLIAAICAGPTALLAHEVGFGCKVTTHPLAKDKMMNGSHYSYSESRVEKDGLILTSRGPGTSFEFALAIVEALVGKDMANQVKAPLVLKD
# modifications: full-length
# notes: full-length recombinant Dj1 protein; mouse protein (Novus, NBP2-59523) injected in mice, human protein used in HepG2 cells
# What was measured:
# HepG2 cells = assay: OCR/ECAR and mitochondrial ATP production in HepG2 cells; format: cell-based, human
# Description: (§1) Mouse myoblast cells (C2C12) were maintained in high glucose DMEM/high, 10% fetal bovine serum with penicillin/streptomycin. pRK5-Dj1-HA plasmid was purchased from Addgene (#29396). Seeded cells were cultured in 6-well plates for 24 hours prior to transfection. Transfections were performed using Lipofectamine 2000 and PLUS reagent according to manufacturer instructions (Invitrogen, Carlsbad, CA). Human HepG2 cells were cultured in DMEM/low media containing 10% fetal bovine serum with penicillin/streptomycin. Mouse AML12 cells were maintained in DMEM/F12, ITS supplement (Gibco, USA), 40 ng/ml dexamethasone, and 10% fetal bovine serum with penicillin/streptomycin. For in vitro experiments, HepG2 cells were treated with or without recombinant human Dj1 protein (Novus, NBC1-18334) in serum-free media containing 25 mM glucose, 200 μM palmitic acid, and 0.25% bovine serum albumin for an indicated time.
# AMPK = AMPK phosphorylation immunoblot in HepG2 cells; format: cell-based, human
# Description: as §1
# HFD-fed mice = assay: rDj1 or tDj1 intravenous every other day for 14 days in HFD-fed mice; format: in vivo, mouse
# Description: (§2) C57BL/10cSn-Dmd^mdx/J (001801, mdx) and C57BL/10ScSnJ (000476, WT) mice were ordered directly from The Jackson Laboratory. Different ages of mdx and WT mice were obtained. Animals were weaned 21 days after birth and had free access to food and water and were housed on 12 h light-dark cycle. C57BL/6J males were introduced to a normal diet (NC, Research Diets D15100601) or high-fat diet (HFD, Research Diets D12331), and maintained on a diet for the indicated time. The HFD diet derives 58% of its kilocalories (kcal) from fat (soybean and coconut oil), 25.5% from carbohydrates (sucrose and maltodextrin), and 16.4% from protein (casein). NASH model mice were fed for up to 28 weeks with the NASH diet (Envigo, TD.120528) and 42% fructose (Sigma, F0127) in the water (1,2). The NASH diet is composed of 405.36 g/Kg sucrose and 12.5 g/Kg cholesterol. Recombinant mouse Dj1 protein (Novus, NBP2-59523) or truncated mouse Dj1 (tDj1, GenScript) protein was intravenously injected every day for 5 days or every other day for 2 weeks. Skeletal muscle-specific Park7 knockout mice were generated by crossing Park7 flox mice with Myl1-cre mice (JAX, #024713). Mice were raised in microisolator cages with a 12 h: 12 h light: dark cycle. All procedures were performed in accordance with the Guide for Care and Use of Laboratory Animals of the National Institutes of Health, and were approved by the Animal Subjects Committee of the University of California, Los Angeles.
# Cryosections (10-μm thick transverse sections of frozen muscle cut in a cryostat (Leica) at −20° C.) were subjected to hematoxylin & eosin (H&E) staining (10, 54). Liver tissues were fixed in phosphate-buffered 10% formalin and embedded in paraffin wax. Sections were cut and stained with H&E.
# Mouse serum Dj1 and CK were measured by mouse Park7/DJ-1 DuoSet ELISA (DY8136, R&D systems) and mouse CKMB/Creatine Kinase MB ELISA Kit (LS-F5745, LSBio) respectively. Mouse Serum AST and ALT were measured by AST activity assay kit (Sigma, MAK055) and ALT activity assay kit (Sigma, MAK052) respectively.
# Plasma and liver NEFA, Cholesterol, and Triglyceride were analyzed by their respective kits (FUJIFILM Wako Diagnostics)
# About 80 mg of liver samples were homogenized and sonicated in PBS (pH 7.4) for lipid extraction. An internal standard mixture (ISTD) and CHCl3:methanol (2:1) were added to the samples before being vortexed, mixed, sonicated, and centrifuged. The supernatant containing the lipid was removed and dried, the lipids were resuspended in ethanol and then sonicated.
# Dj1 is a highly conserved protein that is ubiquitously expressed in most mammalian tissues. It belongs to the Dj1/ThiJ/PfpI family chaperones, and its expression is induced by oxidative stress (20,21). To determine whether the PfpI domain of Dj1 exerts a similar role as the full-length Dj1 protein (rDj1) in liver cells, truncated Dj1 (tDj1) comprising of only the PfpI domain was purified (FIG. 5O). HFD-fed mice were intravenous injected with rDj1 or tDj1 every other day for 14 days.
# JNK = assay: TNFα-induced JNK phosphorylation in HepG2 cells; format: cell-based; details: human HepG2 liver cells
# Source text: As described above, Dj1 administration stimulates AMPK phosphorylation in the liver cells. However, elevated AMPK phosphorylation in vivo was not observed (data not shown). Numerous studies have reported that the c-Jun N terminal kinase (JNK) is critical to the development of steatosis and chronic liver injury in NAFLD (22-25). […] However, not all MAPK pathways were activated. For example, phosphorylation of p42 was not altered by tDj1 treatment (FIG. 6O). Both rDj1 and tDj1 suppressed TNFα and Anisomycin-induced JNK (p54 and p46) phosphorylation in human HepG2 and mouse AML12 liver cells, respectively (FIGS. 6C-6D).
# ACC = ACC phosphorylation immunoblot in HepG2 cells; format: cell-based, human
# Description: as §1
# NC-fed C57BL/6J mice = assay: rDj1 tail-vein injection daily for 5 days in NC-fed mice; format: in vivo, mouse; details: 0.15 mg/kg/day IV for 5 days
# Description: as §2, with “All procedures were performed in accordance with the Guide for Care and Use of Laboratory Animals of the National Institutes of Health, and were approved by the Animal Subjects Committee of the University of California, Los Angeles.” left out
# Plasma and liver NEFA, Cholesterol, and Triglyceride were analyzed by their respective kits (FUJIFILM Wako Diagnostics) […]
# AMPK signaling = assay: RNA sequencing analysis of HepG2 cells; format: cell-based, human
# [1] = system: liver inflammation, de-novo lipogenesis and gluconeogenesis genes; assay: Gene expression in the liver of NC- or HFD-fed mice; format: in vivo, mouse
# Description: A wide variety of mechanisms activate the JNK pathway. […] Moreover, ASK1 is activated by various stresses, including oxidative stress, ER stress, calcium overload, and receptor-mediated inflammatory signals such as TNFα and lipopolysaccharide (LPS) (26,27). rDj1 administration suppressed both baseline and TNFα-induced ROS levels in HepG2 cells, which may contribute to reducing liver inflammation (FIG. 6F).
# Also, the transcriptional activity of PPARα was determined to be elevated by Dj1 administration in the liver of both NC- and HFD-fed mice (FIGS. 6L, 6M, 6S, 6T). Furthermore, Dj1 elevated plasma β-hydroxybutyrate (a ketone body) levels in NC-fed mice but not in HFD-fed mice (FIG. 6N, 6U).
molecule,measurement,setting,value
B1,mitochondrial ATP production rate,HepG2 cells,enhanced
same,oxygen consumption rate/extracellular acidification rate (OCR/ECAR),HepG2 cells,enhanced
same,phosphorylation of AMPK,AMPK,elevated
same,level of TG in the liver,HFD-fed mice,significantly reduced
same,"liver histology, lipid accumulation",HFD-fed mice,less lipid accumulation
same,plasma ALT levels,HFD-fed mice,reducing
same,plasma AST levels,HFD-fed mice,reducing
same,TNFα-induced JNK (p54 and p46) phosphorylation,JNK,suppressed; also recorded: inhibits
same,phosphorylation of ACC,ACC,elevated
same,plasma cholesterol levels,NC-fed C57BL/6J mice,significantly reduced
same,plasma non-esterified fatty acids (NEFA),NC-fed C57BL/6J mice,significantly reduced
same,AMPK signaling (RNA sequencing analysis),AMPK signaling,upregulated
same,reduction of gene expression of de-novo lipogenesis,[1]; liver of HFD-fed mice,blunted
same,reduction of gene expression of gluconeogenesis,[1]; liver of HFD-fed mice,blunted
same,gene expression of de-novo lipogenesis,[1]; liver of NC-fed mice,reduced
same,gene expression of gluconeogenesis,[1]; liver of NC-fed mice,reduced
